Data published in patent US20070092518A1 (published 2007).
Positions count from the first letter of the chain named.

B1: SEQ ID NO 186 (Fab, V domains shown)
VH: EVQLTESGGGLVQPGGSLRLSCAASGSTFSNHYMNWVRQAPGKGLEWIGEIRSKSIYSATSYAESVKGRFIISRDDNGNSLTLEMNSLKTEDTAEYYCARNYYGSTPDYWGQGTLVTVS
VL: EIVLTQSPDFQSVTPKEKVTITCRASQFVGSSIHWYQQKPDQSPKLLIKYASESMSGVPSRFSGSGSGTDFTFTISSLEAEDAATYYCQQSHSWPFTFGPGTKVDIK
notes: Fab, E. coli lysate
B2: SEQ ID NO 71 (Fab, V domains shown)
VH: B1 VH with A23R, Y33W, S58G, D76G, G78K, N79T
VL: B1 VL
notes: Fab, E. coli lysate
B3: SEQ ID NO 190 (Fab, V domains shown)
VH: EVQLVESGGGLVQPGGSLRLSCRASGFIFSNHWMNWVRQAPGKGLEWIGEIRSKSINSATSYAESVKGRFIISRDGNKTDLTLEMNSLKTEDTAEYYCARNYYGSTYDYWGQGTLVTVS
VL: B1 VL
notes: Fab, E. coli lysate
B4: TNFα antibody C7 (full-length antibody) (antibody, V domains shown)
VH: B3 VH with R23A, S61H, G76D, T79N, D80S, T82Y
VL: B1 VL
notes: Variable regions subcloned into a mammalian construct with infliximab constant region (IgG1 kappa)
B5: SEQ ID NO 188 (Fab, V domains shown)
VH: B3 VH with R23A, W33Y, N57Y, S58G, G76D, T79N, T82Y, R100Q
VL: B1 VL
notes: Fab, E. coli lysate
B6: SEQ ID NO 187 (Fab, V domains shown)
VH: B1 VH with S27F, I56S, S58G, D76G, N79T, S80D, T82Y, R100Q, P107Y
VL: B1 VL
notes: Fab, E. coli lysate
B7: SEQ ID NO 189 (Fab, V domains shown)
VH: B1 VH with G26Q, S27F, Y33W, S61H, N79T
VL: B1 VL
notes: Fab, E. coli lysate

Experiments:
[1] = molecular target: T1, human tumor necrosis factor-α (rHuTNF-alpha, Biosource) (human, UniProt P01375 77-233); assay: solid-phase ELISA, Fab lysate on coated rHuTNF-alpha
T1 construct: Bought recombinant protein coated on ELISA plates; The TNFα of the Biacore assay is not described further; also called TNFα; human TNFα
T1 sequence (P01375 77-233 limits assumed): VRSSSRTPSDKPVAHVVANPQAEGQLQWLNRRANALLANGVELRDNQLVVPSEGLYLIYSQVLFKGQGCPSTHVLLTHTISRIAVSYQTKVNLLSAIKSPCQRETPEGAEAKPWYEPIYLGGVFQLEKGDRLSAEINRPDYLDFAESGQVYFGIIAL
Summary of the method: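 E. coli lysates expressing His-tagged Fab (pTrcHis2A) were incubated 2 h at RT on wells coated with 1 μg/ml rHuTNF-α and blocked with BSA. Bound Fab was detected with biotinylated anti-human kappa plus penta-His conjugates, then streptavidin-POD and TMB. Absorbance was read at 450 nm.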

[2] = molecular target: T1, human tumor necrosis factor-α …; assay: Biacore, against infliximab
[3] = molecular target: T1, human tumor necrosis factor-α …; assay: Biacore

Binder | binding result [1] | fold higher binding affinity than infliximab [2] [fold] | Kd [3] [nM]
B1 | binds | – | –
B2 | binds | – | –
B3 | binds | – | –
B4 | – | > 2 | 0.07
B5 | binds | – | –
B6 | binds | – | –
B7 | binds | – | –
